Measured values as given in patent US7304034.

Assays:
[1] = target: cell surface binding sites for HMGB1 on RAW 264.7 cells; assay: cell-based or functional assay
[2] = target: cell surface binding sites for HMGB1 on RAW 264.7 cells; assay: 125I-HMGB1 cell surface binding to RAW 264.7 cells, 2 hours at 4 C, no competitor
[3] = target: RAGE on RAW 264.7 cells (mouse (murine RAW 264.7 cells)) (UniProt Q62151); assay: cell-based or functional assay
RAGE on RAW 264.7 cells (mouse (murine RAW 264.7 cells)), sequence (Q62151 23-402): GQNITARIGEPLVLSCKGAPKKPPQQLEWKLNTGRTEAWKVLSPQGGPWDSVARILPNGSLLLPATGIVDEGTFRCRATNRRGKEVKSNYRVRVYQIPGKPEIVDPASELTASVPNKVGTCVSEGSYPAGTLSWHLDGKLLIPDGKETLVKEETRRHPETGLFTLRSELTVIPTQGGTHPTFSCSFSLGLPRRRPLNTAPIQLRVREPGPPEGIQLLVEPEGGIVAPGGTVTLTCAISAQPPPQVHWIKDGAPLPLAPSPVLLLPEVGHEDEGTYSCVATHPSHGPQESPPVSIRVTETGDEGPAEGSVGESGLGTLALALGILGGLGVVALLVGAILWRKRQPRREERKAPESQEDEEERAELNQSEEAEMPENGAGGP

inhibition of HMGB1 (1 µg/ml) induced TNF release from RAW 264.7 cells, apparent EC50 [1] [µg/mL]	total counts obtained in the absence of unlabeled HMGB1 proteins (CPM/well) [2] [CPM/well]	maximum inhibition of HMG-1 signaling (TNF release from RAW 264.7 cells) by anti-RAGE antibody [3] [%]	Substance
7.5			HMGB1 A box (Amino terminus + A Box mutant of human HMGB1) (from UniProt A9RA84 1-85)
	2.38e+06	40	Recombinant full length human HMGB1 (wild type HMGB1) (from UniProt A9RA84 1-215) (ligand)
